In US20140086936A1:

Key:
[1] = target: T1, Recombinant purified human matriptase (amino acids 596-855) (human), Q9Y5Y6; assay: enzyme inhibition, fluorogenic substrate Boc-Gln-Ala-Arg-AMC, Morrison tight-binding fit
T1 chain: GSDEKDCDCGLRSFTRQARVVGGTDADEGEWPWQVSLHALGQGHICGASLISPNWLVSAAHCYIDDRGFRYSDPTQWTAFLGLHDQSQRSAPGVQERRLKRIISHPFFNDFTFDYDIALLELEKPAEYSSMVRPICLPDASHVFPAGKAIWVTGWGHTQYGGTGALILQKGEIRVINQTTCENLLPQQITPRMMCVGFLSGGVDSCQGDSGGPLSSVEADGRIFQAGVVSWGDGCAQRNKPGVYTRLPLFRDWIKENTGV

[2] = target: T1, Recombinant purified human matriptase …; assay: ratio of Ki values, enzyme inhibition
[3] = target: T1, Recombinant purified human matriptase …; assay: enzyme inhibition, 1 nM matriptase, 1 µM inhibitor, Boc-Gln-Ala-Arg-AMC 50 µM
[4] = target: thrombin; assay: enzyme inhibition, selectivity profile, mixed model fit
[5] = target: T2, matriptase-2 (human), Q8IU80; assay: enzyme inhibition, selectivity profile, Morrison tight-binding fit
T2 chain: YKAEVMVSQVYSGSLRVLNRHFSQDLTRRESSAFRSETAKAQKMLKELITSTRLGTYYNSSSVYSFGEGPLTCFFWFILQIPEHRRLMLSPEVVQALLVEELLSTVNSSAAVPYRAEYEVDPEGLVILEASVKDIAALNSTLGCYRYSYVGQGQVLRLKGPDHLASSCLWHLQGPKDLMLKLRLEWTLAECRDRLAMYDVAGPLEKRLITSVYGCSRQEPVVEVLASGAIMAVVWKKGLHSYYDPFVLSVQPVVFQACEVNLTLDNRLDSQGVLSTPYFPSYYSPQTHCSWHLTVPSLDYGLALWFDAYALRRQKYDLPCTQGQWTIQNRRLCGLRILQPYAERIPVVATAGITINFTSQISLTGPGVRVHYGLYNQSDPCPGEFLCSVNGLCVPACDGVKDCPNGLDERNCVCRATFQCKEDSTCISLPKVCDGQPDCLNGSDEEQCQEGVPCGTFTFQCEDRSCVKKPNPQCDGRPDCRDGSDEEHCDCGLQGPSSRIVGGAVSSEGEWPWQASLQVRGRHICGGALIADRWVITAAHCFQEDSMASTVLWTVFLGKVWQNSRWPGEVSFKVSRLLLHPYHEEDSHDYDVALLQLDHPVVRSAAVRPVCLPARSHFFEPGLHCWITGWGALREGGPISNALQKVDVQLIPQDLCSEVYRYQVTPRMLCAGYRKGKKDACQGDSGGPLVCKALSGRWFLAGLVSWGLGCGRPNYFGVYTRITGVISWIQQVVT

[6] = target: Bovine trypsin (bovine), P00760; assay: as above
Sequence of Bovine trypsin (bovine), P00760 (P00760 24-246): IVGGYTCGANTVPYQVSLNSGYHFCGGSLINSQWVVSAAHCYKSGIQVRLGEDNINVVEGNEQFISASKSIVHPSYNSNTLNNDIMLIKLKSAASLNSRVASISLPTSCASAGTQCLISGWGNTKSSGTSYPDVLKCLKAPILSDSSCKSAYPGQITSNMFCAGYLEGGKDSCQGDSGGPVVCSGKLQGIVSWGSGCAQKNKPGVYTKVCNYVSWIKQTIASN

[7] = target: T3, TMPRSS11D, O60235; assay: as above
T3 chain: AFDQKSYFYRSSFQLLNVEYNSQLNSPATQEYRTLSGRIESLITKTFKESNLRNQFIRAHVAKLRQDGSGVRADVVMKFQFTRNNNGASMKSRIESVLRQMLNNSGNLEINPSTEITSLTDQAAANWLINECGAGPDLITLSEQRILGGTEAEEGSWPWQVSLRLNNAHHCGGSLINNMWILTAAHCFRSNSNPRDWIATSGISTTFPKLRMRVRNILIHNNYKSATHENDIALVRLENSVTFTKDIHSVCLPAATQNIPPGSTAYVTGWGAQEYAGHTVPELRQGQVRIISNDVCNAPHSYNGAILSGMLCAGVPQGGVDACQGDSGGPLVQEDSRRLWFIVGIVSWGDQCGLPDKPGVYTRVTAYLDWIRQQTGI

[8] = target: T1, Recombinant purified human matriptase …; assay: enzyme inhibition, 1 nM enzyme, Boc-Gln-Ala-Arg-AMC substrate
[9] = target: hepsin (human), P05981; assay: as above
Sequence of hepsin (human), P05981 (P05981 45-417 limits assumed): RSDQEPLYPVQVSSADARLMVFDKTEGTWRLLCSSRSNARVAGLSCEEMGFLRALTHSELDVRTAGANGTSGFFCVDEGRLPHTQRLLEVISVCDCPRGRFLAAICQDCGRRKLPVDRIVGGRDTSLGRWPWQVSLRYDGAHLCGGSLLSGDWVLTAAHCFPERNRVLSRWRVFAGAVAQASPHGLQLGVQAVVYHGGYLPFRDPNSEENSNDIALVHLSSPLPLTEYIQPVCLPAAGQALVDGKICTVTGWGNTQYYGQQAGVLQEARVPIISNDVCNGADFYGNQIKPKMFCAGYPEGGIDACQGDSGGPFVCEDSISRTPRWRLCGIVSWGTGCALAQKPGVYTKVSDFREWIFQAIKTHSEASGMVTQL

[10] = target: T1, Recombinant purified human matriptase …; assay: enzyme inhibition, fluorogenic substrate Boc-Gln-Ala-Arg-AMC, mixed model fit

RQAK (modifications not checked) [RQAK-ketobenzothiazole]
Ki [1]: 9.5 nM
change of Ki relative to compound 1 (orders of magnitude) [2]: 3
percent inhibition of matriptase activity at 1 µM [3]: 25%

RQAR (modifications not checked) [RQAR-ketobenzothiazole]
Ki [4]: 637 nM
Ki [5]: 3.3 nM
Ki [6]: 0.97 nM
Ki [7]: 8.4 nM
IC50 [8]: 29 nM
IC50 [9]: 540 nM

RQAR (modifications not checked) [R-Q-A-(D)R ketobenzothiazole (compound 7)]
Ki [1]: 4.6 nM

RQAR (modifications not checked) [reduced form of RQAR-ketobenzothiazole]
Ki [10]: 6120 nM
